Numbered stars: 1 amine (or outer) side, 2 acyl side, 3 side chain; on linkers, the order of the positions; unused ones are H or OH. Bridge positions count the residues as written; N and C are the ends. Side chains are listed from the residue outwards. Ends that are not written are not given here. * marks the point of attachment. C20 diacid = O=C(O)CCCCCCCCCCCCCCCCCCC(=O)*; γGlu = O=C(O)[C@H](CCC(=O)[*:2])N[*:1]; AEEA = NCCOCCOCC(=O)O
T1: human amylin receptor (amylin 3(a) receptor: human calcitonin receptor co-expressed with RAMP-3) (human, UniProt P30988 25-474; O60896 24-148, limits assumed)
T1 sequence (looked up) 1: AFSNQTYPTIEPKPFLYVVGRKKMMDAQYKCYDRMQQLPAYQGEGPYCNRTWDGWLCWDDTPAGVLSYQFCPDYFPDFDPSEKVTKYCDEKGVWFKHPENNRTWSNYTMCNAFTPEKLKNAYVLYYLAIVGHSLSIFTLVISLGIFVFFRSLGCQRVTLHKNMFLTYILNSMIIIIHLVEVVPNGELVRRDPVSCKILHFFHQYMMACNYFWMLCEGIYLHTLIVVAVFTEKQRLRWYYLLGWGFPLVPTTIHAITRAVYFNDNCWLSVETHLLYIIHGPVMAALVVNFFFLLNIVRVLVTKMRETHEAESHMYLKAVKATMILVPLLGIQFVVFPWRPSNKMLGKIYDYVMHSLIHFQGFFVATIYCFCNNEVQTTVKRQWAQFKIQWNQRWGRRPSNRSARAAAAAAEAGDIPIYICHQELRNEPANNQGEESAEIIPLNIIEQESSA
T1 sequence (looked up) 2: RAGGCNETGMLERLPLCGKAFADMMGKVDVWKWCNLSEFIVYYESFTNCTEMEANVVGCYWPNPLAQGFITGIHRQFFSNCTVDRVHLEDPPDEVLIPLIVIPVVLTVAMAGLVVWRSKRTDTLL

T2: human calcitonin receptor (human, UniProt P30988 25-474)
T2 sequence (looked up): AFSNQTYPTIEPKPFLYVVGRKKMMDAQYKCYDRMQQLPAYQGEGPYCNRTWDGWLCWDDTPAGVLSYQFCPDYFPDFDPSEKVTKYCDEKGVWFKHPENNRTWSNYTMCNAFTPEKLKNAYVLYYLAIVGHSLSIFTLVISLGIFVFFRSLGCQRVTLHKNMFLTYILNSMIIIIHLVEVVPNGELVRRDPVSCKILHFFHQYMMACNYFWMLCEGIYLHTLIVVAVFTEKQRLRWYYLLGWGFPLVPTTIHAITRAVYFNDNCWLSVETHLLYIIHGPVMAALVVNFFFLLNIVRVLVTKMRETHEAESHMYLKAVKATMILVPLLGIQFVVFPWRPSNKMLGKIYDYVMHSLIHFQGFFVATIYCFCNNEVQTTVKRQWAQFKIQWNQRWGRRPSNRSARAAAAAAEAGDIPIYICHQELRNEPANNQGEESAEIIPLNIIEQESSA


Assays:
[1] = target: T1, human amylin receptor (amylin 3(a) …); experiment: cell-based or functional assay
[2] = target: T2, human calcitonin receptor; experiment: cell-based or functional assay

Row | Binder | Ratio hCT/hAmylin funct. [1] | hAmylin-R funct. EC50 [1] [pM] | hCTR funct. EC50 [2] [nM]
1 | K([AEEA-γGlu-C20 diacid])CNTATCATQRLARFLRHSSPNFGAIPSSTNVGSNTY-NH2 (disulfide 2-7; N-terminus assumed; SMILES CC[C@H](C)[C@H](NC(=O)[C@H](C)NC(=O)CNC(=O)[C@H](Cc1ccccc1)NC(=O)[C@H](CC(N)=O)NC(=O)[C@@H]1CCCN1C(=O)[C@H](CO)NC(=O)[C@H](CO)NC(=O)[C@H](Cc1c[nH]cn1)NC(=O)[C@H](CCCNC(=N)N)NC(=O)[C@H](CC(C)C)NC(=O)[C@H](Cc1ccccc1)NC(=O)[C@H](CCCNC(=N)N)NC(=O)[C@H](C)NC(=O)[C@H](CC(C)C)NC(=O)[C@H](CCCNC(=N)N)NC(=O)[C@H](CCC(N)=O)NC(=O)[C@@H](NC(=O)[C@H](C)NC(=O)[C@@H]1CSSC[C@H](NC(=O)[C@@H](N)CCCCNC(=O)COCCOCCNC(=O)CC[C@H](NC(=O)CCCCCCCCCCCCCCCCCCC(=O)O)C(=O)O)C(=O)N[C@@H](CC(N)=O)C(=O)N[C@@H]([C@@H](C)O)C(=O)N[C@@H](C)C(=O)N[C@@H]([C@@H](C)O)C(=O)N1)[C@@H](C)O)C(=O)N1CCC[C@H]1C(=O)N[C@@H](CO)C(=O)N[C@@H](CO)C(=O)N[C@H](C(=O)N[C@@H](CC(N)=O)C(=O)N[C@H](C(=O)NCC(=O)N[C@@H](CO)C(=O)N[C@@H](CC(N)=O)C(=O)N[C@H](C(=O)N[C@@H](Cc1ccc(O)cc1)C(N)=O)[C@@H](C)O)C(C)C)[C@@H](C)O, also called compound 82) | 59.2 | 215 | 12.7
2 | K([AEEA-γGlu-C20 diacid])CNTATCATQRLANFLRHSSPNFGAIPPSTNVGPNTY-NH2 (disulfide 2-7; N-terminus assumed; SMILES CC[C@H](C)[C@H](NC(=O)[C@H](C)NC(=O)CNC(=O)[C@H](Cc1ccccc1)NC(=O)[C@H](CC(N)=O)NC(=O)[C@@H]1CCCN1C(=O)[C@H](CO)NC(=O)[C@H](CO)NC(=O)[C@H](Cc1c[nH]cn1)NC(=O)[C@H](CCCNC(=N)N)NC(=O)[C@H](CC(C)C)NC(=O)[C@H](Cc1ccccc1)NC(=O)[C@H](CC(N)=O)NC(=O)[C@H](C)NC(=O)[C@H](CC(C)C)NC(=O)[C@H](CCCNC(=N)N)NC(=O)[C@H](CCC(N)=O)NC(=O)[C@@H](NC(=O)[C@H](C)NC(=O)[C@@H]1CSSC[C@H](NC(=O)[C@@H](N)CCCCNC(=O)COCCOCCNC(=O)CC[C@H](NC(=O)CCCCCCCCCCCCCCCCCCC(=O)O)C(=O)O)C(=O)N[C@@H](CC(N)=O)C(=O)N[C@@H]([C@@H](C)O)C(=O)N[C@@H](C)C(=O)N[C@@H]([C@@H](C)O)C(=O)N1)[C@@H](C)O)C(=O)N1CCC[C@H]1C(=O)N1CCC[C@H]1C(=O)N[C@@H](CO)C(=O)N[C@H](C(=O)N[C@@H](CC(N)=O)C(=O)N[C@H](C(=O)NCC(=O)N1CCC[C@H]1C(=O)N[C@@H](CC(N)=O)C(=O)N[C@H](C(=O)N[C@@H](Cc1ccc(O)cc1)C(N)=O)[C@@H](C)O)C(C)C)[C@@H](C)O, also called compound 55) |  | 68 | 0.731
3 | K([AEEA-γGlu-C20 diacid])CNTATCATQRLANFLRHSSPNFGAIPSSTNVGHNTY-NH2 (disulfide 2-7; N-terminus assumed; SMILES CC[C@H](C)[C@H](NC(=O)[C@H](C)NC(=O)CNC(=O)[C@H](Cc1ccccc1)NC(=O)[C@H](CC(N)=O)NC(=O)[C@@H]1CCCN1C(=O)[C@H](CO)NC(=O)[C@H](CO)NC(=O)[C@H](Cc1c[nH]cn1)NC(=O)[C@H](CCCNC(=N)N)NC(=O)[C@H](CC(C)C)NC(=O)[C@H](Cc1ccccc1)NC(=O)[C@H](CC(N)=O)NC(=O)[C@H](C)NC(=O)[C@H](CC(C)C)NC(=O)[C@H](CCCNC(=N)N)NC(=O)[C@H](CCC(N)=O)NC(=O)[C@@H](NC(=O)[C@H](C)NC(=O)[C@@H]1CSSC[C@H](NC(=O)[C@@H](N)CCCCNC(=O)COCCOCCNC(=O)CC[C@H](NC(=O)CCCCCCCCCCCCCCCCCCC(=O)O)C(=O)O)C(=O)N[C@@H](CC(N)=O)C(=O)N[C@@H]([C@@H](C)O)C(=O)N[C@@H](C)C(=O)N[C@@H]([C@@H](C)O)C(=O)N1)[C@@H](C)O)C(=O)N1CCC[C@H]1C(=O)N[C@@H](CO)C(=O)N[C@@H](CO)C(=O)N[C@H](C(=O)N[C@@H](CC(N)=O)C(=O)N[C@H](C(=O)NCC(=O)N[C@@H](Cc1c[nH]cn1)C(=O)N[C@@H](CC(N)=O)C(=O)N[C@H](C(=O)N[C@@H](Cc1ccc(O)cc1)C(N)=O)[C@@H](C)O)C(C)C)[C@@H](C)O, also called compound 76) |  | 297 | 7.37
4 | K([AEEA-γGlu-C20 diacid])CNTATCATQRLANFLRHSSPNFGAIPSSTNVGRNTY-NH2 (disulfide 2-7; N-terminus assumed; SMILES CC[C@H](C)[C@H](NC(=O)[C@H](C)NC(=O)CNC(=O)[C@H](Cc1ccccc1)NC(=O)[C@H](CC(N)=O)NC(=O)[C@@H]1CCCN1C(=O)[C@H](CO)NC(=O)[C@H](CO)NC(=O)[C@H](Cc1c[nH]cn1)NC(=O)[C@H](CCCNC(=N)N)NC(=O)[C@H](CC(C)C)NC(=O)[C@H](Cc1ccccc1)NC(=O)[C@H](CC(N)=O)NC(=O)[C@H](C)NC(=O)[C@H](CC(C)C)NC(=O)[C@H](CCCNC(=N)N)NC(=O)[C@H](CCC(N)=O)NC(=O)[C@@H](NC(=O)[C@H](C)NC(=O)[C@@H]1CSSC[C@H](NC(=O)[C@@H](N)CCCCNC(=O)COCCOCCNC(=O)CC[C@H](NC(=O)CCCCCCCCCCCCCCCCCCC(=O)O)C(=O)O)C(=O)N[C@@H](CC(N)=O)C(=O)N[C@@H]([C@@H](C)O)C(=O)N[C@@H](C)C(=O)N[C@@H]([C@@H](C)O)C(=O)N1)[C@@H](C)O)C(=O)N1CCC[C@H]1C(=O)N[C@@H](CO)C(=O)N[C@@H](CO)C(=O)N[C@H](C(=O)N[C@@H](CC(N)=O)C(=O)N[C@H](C(=O)NCC(=O)N[C@@H](CCCNC(=N)N)C(=O)N[C@@H](CC(N)=O)C(=O)N[C@H](C(=O)N[C@@H](Cc1ccc(O)cc1)C(N)=O)[C@@H](C)O)C(C)C)[C@@H](C)O, also called compound 78) |  | 316 | 8.17

Other lines, results leading:

Row | Ratio hCT/hAmylin funct. [1] | hAmylin-R funct. EC50 [1] [pM] | hCTR funct. EC50 [2] [nM] | Binder
5 |  | 89 | 3.12 | K([AEEA-γGlu-C20 diacid])CNTATCATQRLANFLRHSSPNFGAIPSSTPVGSHTY-NH2 (disulfide 2-7; N-terminus assumed; SMILES CC[C@H](C)[C@H](NC(=O)[C@H](C)NC(=O)CNC(=O)[C@H](Cc1ccccc1)NC(=O)[C@H](CC(N)=O)NC(=O)[C@@H]1CCCN1C(=O)[C@H](CO)NC(=O)[C@H](CO)NC(=O)[C@H](Cc1c[nH]cn1)NC(=O)[C@H](CCCNC(=N)N)NC(=O)[C@H](CC(C)C)NC(=O)[C@H](Cc1ccccc1)NC(=O)[C@H](CC(N)=O)NC(=O)[C@H](C)NC(=O)[C@H](CC(C)C)NC(=O)[C@H](CCCNC(=N)N)NC(=O)[C@H](CCC(N)=O)NC(=O)[C@@H](NC(=O)[C@H](C)NC(=O)[C@@H]1CSSC[C@H](NC(=O)[C@@H](N)CCCCNC(=O)COCCOCCNC(=O)CC[C@H](NC(=O)CCCCCCCCCCCCCCCCCCC(=O)O)C(=O)O)C(=O)N[C@@H](CC(N)=O)C(=O)N[C@@H]([C@@H](C)O)C(=O)N[C@@H](C)C(=O)N[C@@H]([C@@H](C)O)C(=O)N1)[C@@H](C)O)C(=O)N1CCC[C@H]1C(=O)N[C@@H](CO)C(=O)N[C@@H](CO)C(=O)N[C@H](C(=O)N1CCC[C@H]1C(=O)N[C@H](C(=O)NCC(=O)N[C@@H](CO)C(=O)N[C@@H](Cc1c[nH]cn1)C(=O)N[C@H](C(=O)N[C@@H](Cc1ccc(O)cc1)C(N)=O)[C@@H](C)O)C(C)C)[C@@H](C)O, also called compound 57)
6 |  | 102 | 0.506 | K([AEEA-γGlu-C20 diacid])CNTATCATQRLANFLRHSSPNFGAIPSPTNVGPNTY-NH2 (disulfide 2-7; N-terminus assumed; SMILES CC[C@H](C)[C@H](NC(=O)[C@H](C)NC(=O)CNC(=O)[C@H](Cc1ccccc1)NC(=O)[C@H](CC(N)=O)NC(=O)[C@@H]1CCCN1C(=O)[C@H](CO)NC(=O)[C@H](CO)NC(=O)[C@H](Cc1c[nH]cn1)NC(=O)[C@H](CCCNC(=N)N)NC(=O)[C@H](CC(C)C)NC(=O)[C@H](Cc1ccccc1)NC(=O)[C@H](CC(N)=O)NC(=O)[C@H](C)NC(=O)[C@H](CC(C)C)NC(=O)[C@H](CCCNC(=N)N)NC(=O)[C@H](CCC(N)=O)NC(=O)[C@@H](NC(=O)[C@H](C)NC(=O)[C@@H]1CSSC[C@H](NC(=O)[C@@H](N)CCCCNC(=O)COCCOCCNC(=O)CC[C@H](NC(=O)CCCCCCCCCCCCCCCCCCC(=O)O)C(=O)O)C(=O)N[C@@H](CC(N)=O)C(=O)N[C@@H]([C@@H](C)O)C(=O)N[C@@H](C)C(=O)N[C@@H]([C@@H](C)O)C(=O)N1)[C@@H](C)O)C(=O)N1CCC[C@H]1C(=O)N[C@@H](CO)C(=O)N1CCC[C@H]1C(=O)N[C@H](C(=O)N[C@@H](CC(N)=O)C(=O)N[C@H](C(=O)NCC(=O)N1CCC[C@H]1C(=O)N[C@@H](CC(N)=O)C(=O)N[C@H](C(=O)N[C@@H](Cc1ccc(O)cc1)C(N)=O)[C@@H](C)O)C(C)C)[C@@H](C)O, also called compound 56)

— patent US20140087995A1 (published 2014)
